Assay results as given in the nanobody polyreactivity screen of Harvey et al. (2022).

Test: yeast display, Sf9 membrane polyspecificity reagent, FACS + sequencing; frameworks hold sequencing errors
How it was run: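 After 36–48 hours of galactose induction, yeast (Saccharomyces cerevisiae BJ5465) displaying a synthetic nanobody library were stained at 4 °C for 1 hour with 10% biotinylated, detergent-solubilized Sf9 membrane reagent. Streptavidin microbeads enriched the stained cells before FACS sorting into low and high (top ~1%) gates on anti-HA and streptavidin fluorescence. Each clone's polyreactivity label reflects its gate of origin.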

| Sequence | polyreactivity (PSR sort gate) |
| --- | --- |
| QVQLVESGGGLVQAGGSLRLSCAASGSILLYYTMGWYIQAPGKEWELVAAISWSGGSTYYADSVKGRFTISRDNAKNTVYLLMISLKPEDTAVYYCATRSVQGSYFAGYGYWGQGTQVTVSS | low polyreactivity |
| QVQLVESGGGLVQAGGSLRLSCAASGRIFSNNAMGWYRQAPGKERELVAAISWNGGRTYYADSVKGRFTISRDNAKNTVYLQMNSLKPEDTAVYYCAAGRYDYWGQGTQVTVSS | high polyreactivity |
| QVQLVESGGGLVQAGGSLRLSCAASGFIFRRYAMGWYRQAPGKERELVAAITRSGGSTYYADSVKGRFTISRDNAKNTVYLQMNSLKPEDTAVYYCAAPYFGANGKPEYGYWGQGTQVTVSS | high polyreactivity |
| QVQLVESGGGLVQAGGSLRLSCAASGSTFATYTMGWYRQAPGKERELVAAISVSGSRTYYADSVKGRFTISRDNAKNTVYLQMNSLKPEDTAVYYCNTLLRPRWSYDYWGQGTQVTVSS | high polyreactivity |
| QVQLVESGGGLVQAGGSLRLSCAASGSIFGWYGMGWYRQAPGKERELVAAINWGGTNTYYADSVKGRFTISRDNAKNTVYLQMISLKPEDTAVYSCNADIPRRPNRHYLYDYWGQATQVTVSS | low polyreactivity |
| QVQLVESGVGLVQAGGSLRLSCAASGRTFVGNAMGWYRQAPGKERELVAAISVSGGSTYYADSVKGRFTISRDNAKNTVYVQMNSLKPEDTAGYYCAADGYYNRYGYRTSDESEYWGQGTQVTVTS | low polyreactivity |
| QVQLVESGGGLVQAGGSLRLSCAASGFTFYLYTMGWYLQAPGKERELVATITSDGGTNYADSVKGRFTISRDNAKNTVYLQMNSLKPEDTAVYYCNAASRRGSRKQAKYDYWGQGTQVTVSS | low polyreactivity |
| QVQLVESGGGLVQAGGSLRLSCAASGRTFSIYAKGWYRQAPGKERELVAAISNGGRTKYADSVKGRFTISRDNAKNTVYLQMNSLKPEDTAVYYCAASSYTHKRYPSPYDYWGQGTQVTVSS | high polyreactivity |
| QVQLEESGGGLVQAGGSLSLSCAASGFIFPTYAMGWYRQAPGKERELVAVISGGGRTKYADSVKGRFTISRDNAKNTVYLQMNSLKPEDTAVYYCNADYWKGWTKFEYWGQGTQVTLSS | high polyreactivity |
| QVQLVESRGGLVQAGGSLRLSCAASGFTFSWYAMGWYRQAPGKERELVAAITRSGGSTNYADSVKGRFTMSRDNAKNTVYLQMNSLKPEDTAVYYCAARYSPGFGYWGKGTQVTVSS | high polyreactivity |
| QVQLVESGGGLVQAGGSLRVSCAASGRTFRSYAMGWYRQAPGKERELVAAIRRGGSTNYADSVKGRFPISRDNAKYTVYLQMNSLKPEDTAVYYCAARYTRWRYNYKDYDYWGQGTQVTVSS | high polyreactivity |
| QVQLVESGGGLVQAGGSLRLSCAASGSTFAYYAMGWYRQAPGKEREFVAAISTRGGSTYYADSVKGRFTISRDNAKNTLYLQMNSLKPEDTAVYYCAAGYFNYSWRIRFDYWGQGTQVTVSS | high polyreactivity |
| QVQHVESGGGLVQAGGSLRLICAASGYIFRGYVMGWYRQAPGKERELVAAITSRGDSTYYADSVKGRFTISRDNAKNTVYLPMNSLKPEDTAVYYCAARGGVLKGYYYWGQGTQVTVSS | high polyreactivity |
| QVQLVESGGGLVQAGGSLRLSCAASGRIFSAYVMGWNRQAPGKERELVAAISSGGTRTSYADSVKGRFTISRDNAKNTVYLQMNSLTPEDTAVYYCAAARFYRSAYGYWGQGTQVTVSS | high polyreactivity |
| QVQLVESGGGLVQAGGSLRLSCAASGGIFYIYAMGWYRQAPGQERELVAAISWRGTSTYYADSVKGRFTISRDNAKNTVYLQMNRLKPEDTAVYYCAADFSYTSYATRYQGDYWGQGTQVTVSS | low polyreactivity |
| QVQHVESGGGLVQAGGSLRLSCAASGFTFGYYAMGWYRQAPGKERELVAAISGSGGGTYYADSVKGRFTISRDNAKNTVYLQMNSLKPEDTAVYYCNTGRYDRKYDYWGQGTQVTVSS | high polyreactivity |
| QVQLVESGGGLVQAGGSLRLSCAASGFTFNEYAMGWYRQAPGKERELVAAITWGGASTYYADSVKGRFTISRDNAKNTVYLQMNSLKPEDTAVYYCVFVYVYDYYYWGQGTQVTVSS | high polyreactivity |
| QVQLVESGGGLVQAGGSLRLSCAASGSTFCFNDMGWYIQAPGKEREFVAAISSIGGSTYYADSVKGRFKISRDNAKNTLYLQMNSLKPEDTAVYYCAVEVVRVYRYDYWGQGTQVTVSS | low polyreactivity |
| QVQLVESGGGLVQAGGSLRLSCAASGSIFSDYAMGWYRQAPGKEREFVAAIDSSGSTYYADSVKGRFTISRDNAKNTVYLQMNSLKPEDTAVYYCAADHLLYSVYIYYYWGQGTQVTVSS | low polyreactivity |
| QVQLVESGGGLVQAGGSLRLSCAASGSIFAGNAMGWYRQAPGKERELVAAISRRGGSTYYADSVKGRFTISRDNAKNTVYLQMNSLKPEDTAVYYCNALLRYAYHAAYGYWGQGTQVTVSS | high polyreactivity |
| QVQLVESGGGLVQAGGSLRLSCAASGSIFYGYAMGWYRQAPGKEREFVASINSGVGSTYYADSVKGRFTISRDNAKNTVYLLMNSLKPEDTAVYYCNKVHRSFTYNDGQTPAYDYWGQRTQVTVSS | low polyreactivity |
| QVQLVESGGGLVQAGGSLRLSCAASGFTFDWYAMGWYRPAPGTERELVAAISTRGTSTYYADSVKGRFTISRDNAKNTVYLQMNSLKPEDTAVYYCAKRSYHGGDYWGQGTQVTVSS | high polyreactivity |

| Sequence | polyreactivity (PSR sort gate) |
| --- | --- |
| QVQLVESVGGLVQAGGSLRLSCAASGLTFWYYAMGCYRQAPGKERELVARITRSGVGTYYADSVKGRFTISRDNAKNTVYLQMNSLKAEDTAVYYCNARYQYSWVRYGYDYWGQGTQVTVSS | high polyreactivity |
| QVQHVESGGGLVQAGGILRLICPDSGFTIRHKAMGWYRQAPGKEREFVAAISWYDGSTYADSVKGRFTISRDNAKYTVYIQLNCLKPEDTAVYFCNADYPSYRYFTGRHYWGQGTQVTVSS | low polyreactivity |
| QVQLVESGGGLVQAGGSLRLSCAASGRTFTYYTMGWYRQAPGKERELVAAITWSGGRTYYADSVKGRFTISRDNAKYTVYLQMNSLKPEDTAVYYCAKPPQGTYDYWGQGTQVTVSS | low polyreactivity |
| QVQLVESGGGLVQAGGSLRLSCAASGFTFKYYAMGWYRQAPGKERELVAAITKRGGSTYYADSVKGRFTISRDNAKNTVYLQMNSLKPEDTEVYYCAAYYKSTYVPGDYWGQGTQVTVSS | high polyreactivity |
| QVQLVESGGGLVQAGGSLRLSCAASGSIFPSYAMGWYRQAPGKERELVATISGSGTRTYYADSVKGRFTISRDNAKNTVYLQMNILKPEDTAVYYCAADPWLGTGRYDYWGQGTQVTVSS | low polyreactivity |
| QVQLVESGGGLVQAGGSLRLSCAASGLILGRYAMGWYRQAPGKERELVAAITRGGRTYYADSVKGRFTISRDNAKNTVYLQMNSLKPEDPAVYYCAATFGYTRNDYDYWGHGTQVTVSS | high polyreactivity |
| QVQLVESGGGLVQAGGSLRLSCAASGRTFGWYTMGWYRKAPGKVRELVAGISSSGGSTYYADSVKGRFTISRDNAKNTVYLQMNSLKPEDTAVYYCARETYPHGLYYRPYDYWGQGTQVTVSS | low polyreactivity |
| QVQLVESGGGLVQAGGSLRLSCAASGSTFYYYAMGWYRQAPGKERELVAAITKSGGSTYYADSVKGRFTISRDNAKNTVYLQMNSLKPEDTAVYYCAAYLRSGYKFDYWGQGTQVTVSS | low polyreactivity |
| QVQLVESGGGLVQAAGSLRVSCAASGSIFYSNVMGWYRTEPGKERELVARISDAGSTNYADSVKGRFTISRDNAKNTVYLQMNSLKPEDTAVYYCNARLVIYTYDYWGQGTQVTVSS | low polyreactivity |
| QVQLVESGGGLVQAGGSLRLSCAASGSIFSLYDMGWYRQAPGKERELVASITWSGGSTDYADSVKGRFTISRDNAKNTVYLQMNSLKPEDTAVYYCAAYSYTSIFDYWGQGTQVTVSS | low polyreactivity |
| QVQLVESGGGLVQAGGSLRLSCAASGSIFVGNAMGWYRQAPGKERELVAAISWGGARTYYADSVKGRFTISRDNAKNTVYLQMNSLKQEDTAVYYCAAGSSSRSTTHYYYWGQGTQVTVSS | high polyreactivity |
| LVQLVESGGGIVQAGGSLRLTCAASGRTFWGYSMGWYRQSPGKERELVAAISWTGGRTYYADSVKGRFTISRDYAKNSVNLQMNSLKPEDTAVYDCARPYTTYDGRYHYWGQGTQVTVSS | high polyreactivity |
| QVQLVESGGGLVQAGGSLRLICAASGRIFLWNAMGWYRQAPGKEREFVATISWNDAISYYADSVKGRFTISRDNAKNSVYLQMNSLKPEDTAVYYCNVDPKIVLSFGYDYWGQGTQVTVSS | low polyreactivity |
| QVQLVESGGGLVQAGGSLRLSCAASGRTLSAYAMGWYRQAPGKERELVAALRWRGGSTVYAASVKGRFTISRDNAKNPVYLQMHSLKPADTAVYYCNALPGNRRTVYYWGQGTQVTVSS | high polyreactivity |
| QVQLVESGGGLVQAGGSLRLSCAASGRTFSDYAMGWYRQAPGKERELVAAITSSGGSTYYADSVKGRFTISRDNAKNTVYLQMNSLKPEDTAVYYCAKVWYGDRNIDRYDYWGQGTQVTVSS | high polyreactivity |
| QVQLVESGGGLVQAGGSLRLSCAASGSIFGVNAMGWYRQAPGKERELVASITGGDSTNYADSVKGRFTISRDNAKNTVYLQMNSLKPEDTAGYYCAKDHYYRYEEGDYWGQGTQVTVSS | low polyreactivity |
| QVQLVESGGGLVQAGGSLRLSCAASGLTFHAYAMGWYRQPPGKEREFVAAITRSGSSTSYADSVKGRFTISRDNAKNTVYLQMNSLKPEDTAVYYCAAQGSRKYRNDYWGQGTQVTVSS | high polyreactivity |
| QVQLVESGGGLVQEGGSLRLSCAASGITFSVYTMGRYRQAPGKERELVASITRTGGSTYYADSVKGRFTISRDNAKNTVYLQMNSLNPEDTAVYYCAARRTVVTGRYYWGQGTQVTVSS | high polyreactivity |
| QVQLVESGGGLVQAGGSLRLSCAASGSIFETYDMGWYRQAPGKERELVAAITLSGGSTYYADSVKGRFTISRDNAKNTVYLQMNSLKPEDTAVYYCAADDSGVKVWEGDYWGQGTQVTVSS | low polyreactivity |
| QVQLVESGGGLVQAGGSLRLSCAASGRTFRANAMGWYRQAPGKERELVAAITSTGDRTYYADSVKGRFTISRDNAKNTVYLQMNSLKPEDTAVYYCAAENNRYGGYRKYDYWGQGTQVTVSS | low polyreactivity |
| QVQLVESGGCLVQAGGSLRLSCAASGSTFIINAMGWYIQAPGKERVLVAANTSTGGTNYADSVKGRFTISRDNAKNTVYLQMNSLKPEATAVYYCAARYYQDGYDYWGQGTQGTVSS | high polyreactivity |
